Square brackets hold non-standard residues; d marks the D form. pY = N[C@@H](Cc1ccc(OP(=O)(O)O)cc1)C(=O)O

In assay [1] the test system is HePTP. The conditions noted are these: cited from earlier work.
Assay [2] has as its target SHP-1 (Homo sapiens, UniProt P29350). As to conditions: catalytic domain; cited from earlier work.
The target of assay [3] is T1, SHP-2 (Homo sapiens, UniProt Q06124).
T1 sequence (Q06124 199-593): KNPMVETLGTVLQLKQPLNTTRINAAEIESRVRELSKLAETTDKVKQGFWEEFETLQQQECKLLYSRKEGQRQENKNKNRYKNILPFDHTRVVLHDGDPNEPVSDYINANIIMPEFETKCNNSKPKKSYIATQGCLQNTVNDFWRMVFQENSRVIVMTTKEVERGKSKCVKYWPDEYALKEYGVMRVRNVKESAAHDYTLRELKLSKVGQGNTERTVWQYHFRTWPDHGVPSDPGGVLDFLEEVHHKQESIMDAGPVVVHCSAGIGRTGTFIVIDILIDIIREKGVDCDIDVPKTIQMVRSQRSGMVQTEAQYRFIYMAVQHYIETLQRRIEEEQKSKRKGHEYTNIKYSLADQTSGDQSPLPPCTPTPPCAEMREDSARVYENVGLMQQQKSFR
As to conditions: catalytic domain; cited from earlier work.

Assay [4] concerns the target T2, TCPTP (Homo sapiens, UniProt P17706).
T2 sequence (P17706 1-314): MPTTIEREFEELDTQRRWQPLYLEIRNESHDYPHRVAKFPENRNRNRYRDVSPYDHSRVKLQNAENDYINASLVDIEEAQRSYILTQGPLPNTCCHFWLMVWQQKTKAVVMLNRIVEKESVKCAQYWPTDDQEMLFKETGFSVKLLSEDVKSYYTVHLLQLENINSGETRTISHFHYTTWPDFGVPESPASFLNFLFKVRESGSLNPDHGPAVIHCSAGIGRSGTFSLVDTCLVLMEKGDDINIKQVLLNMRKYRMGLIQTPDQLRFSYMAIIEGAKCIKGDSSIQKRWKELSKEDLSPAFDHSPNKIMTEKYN
Kind of assay: PTP assay, TCPTP. Type of assay: biochemical. As to conditions: catalytic domain; 100 mM HEPES pH 7.4; monitored at 282 nm.

The target in assay [5] is T3, PTP-PEST catalytic domain (aa 5-300), GST fusion (human) (UniProt Q05209).
T3 sequence: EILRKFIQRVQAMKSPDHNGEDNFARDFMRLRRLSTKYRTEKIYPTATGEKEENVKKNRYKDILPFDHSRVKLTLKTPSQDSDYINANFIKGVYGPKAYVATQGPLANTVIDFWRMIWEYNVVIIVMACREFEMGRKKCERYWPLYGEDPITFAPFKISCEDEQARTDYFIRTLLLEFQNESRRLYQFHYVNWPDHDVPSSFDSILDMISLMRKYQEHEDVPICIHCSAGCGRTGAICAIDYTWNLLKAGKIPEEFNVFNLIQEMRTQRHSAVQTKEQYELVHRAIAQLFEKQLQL

Assay [6] concerns the target T4, wild-type PTP1B catalytic domain (amino acids 1-321) (human) (UniProt P18031).
T4 sequence: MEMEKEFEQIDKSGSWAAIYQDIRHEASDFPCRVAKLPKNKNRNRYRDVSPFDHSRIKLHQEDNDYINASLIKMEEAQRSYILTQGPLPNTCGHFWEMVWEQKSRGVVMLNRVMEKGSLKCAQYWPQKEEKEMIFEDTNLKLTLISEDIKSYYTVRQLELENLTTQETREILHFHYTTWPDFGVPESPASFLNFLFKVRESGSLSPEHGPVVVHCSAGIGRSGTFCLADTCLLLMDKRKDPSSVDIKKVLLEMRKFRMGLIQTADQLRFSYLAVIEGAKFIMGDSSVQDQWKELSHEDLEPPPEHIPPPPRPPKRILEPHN

The target in assay [7] is T5, R47E PTP1B catalytic domain (amino acids 1-321) (human) (UniProt P18031).
T5 sequence: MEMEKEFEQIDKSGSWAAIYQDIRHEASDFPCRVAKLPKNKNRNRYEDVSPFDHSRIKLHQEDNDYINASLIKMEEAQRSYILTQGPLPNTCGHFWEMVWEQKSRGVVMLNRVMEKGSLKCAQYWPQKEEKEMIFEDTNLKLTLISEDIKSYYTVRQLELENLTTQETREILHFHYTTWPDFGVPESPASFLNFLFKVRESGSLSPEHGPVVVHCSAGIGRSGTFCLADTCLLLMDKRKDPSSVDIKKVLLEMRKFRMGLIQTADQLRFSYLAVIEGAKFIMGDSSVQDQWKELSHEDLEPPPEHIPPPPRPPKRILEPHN

The target in assay [8] is T6, R24M PTP1B catalytic domain (amino acids 1-321) (human) (UniProt P18031).
T6 sequence: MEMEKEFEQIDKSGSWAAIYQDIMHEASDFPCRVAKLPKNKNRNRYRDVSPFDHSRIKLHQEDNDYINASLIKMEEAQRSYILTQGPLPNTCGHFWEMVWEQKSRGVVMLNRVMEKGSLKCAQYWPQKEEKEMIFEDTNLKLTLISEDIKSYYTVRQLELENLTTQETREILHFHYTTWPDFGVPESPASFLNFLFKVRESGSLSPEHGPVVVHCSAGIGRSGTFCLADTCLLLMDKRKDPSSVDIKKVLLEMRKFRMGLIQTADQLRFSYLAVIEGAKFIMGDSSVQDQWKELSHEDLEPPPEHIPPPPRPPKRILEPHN

SHP-1, sequence (P29350 205-595): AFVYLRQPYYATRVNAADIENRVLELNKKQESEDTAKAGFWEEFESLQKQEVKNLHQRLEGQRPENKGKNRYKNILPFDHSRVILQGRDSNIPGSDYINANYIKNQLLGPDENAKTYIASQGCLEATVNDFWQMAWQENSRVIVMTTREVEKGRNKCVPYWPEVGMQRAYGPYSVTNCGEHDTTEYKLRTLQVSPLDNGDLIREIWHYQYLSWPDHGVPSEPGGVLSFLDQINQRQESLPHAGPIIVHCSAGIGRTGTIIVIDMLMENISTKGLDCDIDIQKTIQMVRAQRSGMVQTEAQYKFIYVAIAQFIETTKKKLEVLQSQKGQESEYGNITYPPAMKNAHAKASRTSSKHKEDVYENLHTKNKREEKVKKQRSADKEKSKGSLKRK

For orientation: kcat/KM means the second-order rate constant that governs catalysis at low substrate concentration. As to “DHTGFLpTEpY^187VATRW [reference compound]”, the catalytic efficiency (kcat/KM) in assay [1] was 4800 M⁻¹ s⁻¹.
Broadly, the Km is the concentration of substrate that gives half-maximal velocity. The kcat is the number of substrate molecules converted per active site and unit of time at saturation. As to WDEDFpYDWEF, in assay [2], the Km was 3.2 ± 0.3 µM, the kcat is on record as 75 ± 2 ^c s^−1 and the “kcat/KM x10^6” value is reported as 23 ^c x10^6 M^−1 s^−1. For the same molecule, in assay [3], the Michaelis constant (Km) was 6.3 ± 0.4 µM, the kcat is given as 43 ± 1 ^c s^−1 and the “kcat/KM x10^6” value is reported as 6.8 ^c x10^6 M^−1 s^−1. In assay [4], the Km stood at 0.31 ± 0.01 µM, the kcat was 9.0 ± 0.4 s⁻¹ and the “kcat/KM x10^6” value was 29 x10^6 M^−1 s^−1.
Regarding “phospho-ERK2 protein: phosphorylated ERK2 protein, HePTP substrate recruited via KIM domain”, in assay [1], the “rate of dephosphorylation at the same site (pY187)” value is 2.6 × 10^6 M^−1 s^−1.

B1: Ac-SASASpYSASA-NH2 (neutral) (peptide)
peptide: Ac-SASAS[pY]SASA-NH2
SMILES: CC(=O)N[C@@H](CO)C(=O)N[C@@H](C)C(=O)N[C@@H](CO)C(=O)N[C@@H](C)C(=O)N[C@@H](CO)C(=O)N[C@@H](Cc1ccc(OP(=O)(O)O)cc1)C(=O)N[C@@H](CO)C(=O)N[C@@H](C)C(=O)N[C@@H](CO)C(=O)N[C@@H](C)C(N)=O
Take B1: the KM, steady-state dephosphorylation of the pY peptide in assay [5] worked out at 800 µM.

B2: Ac-ARKRIpYAA-NH2 (peptide)
peptide: Ac-ARKRI[pY]AA-NH2
SMILES: CC[C@H](C)[C@H](NC(=O)[C@H](CCCNC(=N)N)NC(=O)[C@H](CCCCN)NC(=O)[C@H](CCCNC(=N)N)NC(=O)[C@H](C)NC(C)=O)C(=O)N[C@@H](Cc1ccc(OP(=O)(O)O)cc1)C(=O)N[C@@H](C)C(=O)N[C@@H](C)C(N)=O
Consider B2, for which the KM, steady-state dephosphorylation of the pY peptide in assay [6] turned out to be 166 µM; in assay [7] it was 31 µM.

B3: Ac-AApYIRKRA-NH2 (peptide)
peptide: Ac-AA[pY]IRKRA-NH2
SMILES: CC[C@H](C)[C@H](NC(=O)[C@H](Cc1ccc(OP(=O)(O)O)cc1)NC(=O)[C@H](C)NC(=O)[C@H](C)NC(C)=O)C(=O)N[C@@H](CCCNC(=N)N)C(=O)N[C@@H](CCCCN)C(=O)N[C@@H](CCCNC(=N)N)C(=O)N[C@@H](C)C(N)=O
On to B3, for which the KM, steady-state dephosphorylation of the pY peptide in assay [8] came out at 52 µM; in assay [6], 89 µM.

B4: Ac-AApYAADDA-NH2 (peptide)
peptide: Ac-AA[pY]AADDA-NH2
SMILES: CC(=O)N[C@@H](C)C(=O)N[C@@H](C)C(=O)N[C@@H](Cc1ccc(OP(=O)(O)O)cc1)C(=O)N[C@@H](C)C(=O)N[C@@H](C)C(=O)N[C@@H](CC(=O)O)C(=O)N[C@@H](CC(=O)O)C(=O)N[C@@H](C)C(N)=O
As for B4, the KM, steady-state dephosphorylation of the pY peptide turned out to be 6.9 µM in assay [8], 2.6 µM in assay [6] and 11 µM in assay [7].

B5: nephrin pY1217 peptide Ac-DPRGIpYDQVAG-NH2 (peptide)
peptide: Ac-DPRGI[pY]DQVAG-NH2
SMILES: CC[C@H](C)[C@H](NC(=O)CNC(=O)[C@H](CCCNC(=N)N)NC(=O)[C@@H]1CCCN1C(=O)[C@H](CC(=O)O)NC(C)=O)C(=O)N[C@@H](Cc1ccc(OP(=O)(O)O)cc1)C(=O)N[C@@H](CC(=O)O)C(=O)N[C@@H](CCC(N)=O)C(=O)N[C@H](C(=O)N[C@@H](C)C(=O)NCC(N)=O)C(C)C
For B5, the KM, steady-state dephosphorylation of the pY peptide in assay [8] worked out at 71 µM; in assay [6] it was 7.1 µM; in assay [7], 23 µM.

B6: Ac-AApYDDIDE-NH2 (peptide)
peptide: Ac-AA[pY]DDIDE-NH2
SMILES: CC[C@H](C)[C@H](NC(=O)[C@H](CC(=O)O)NC(=O)[C@H](CC(=O)O)NC(=O)[C@H](Cc1ccc(OP(=O)(O)O)cc1)NC(=O)[C@H](C)NC(=O)[C@H](C)NC(C)=O)C(=O)N[C@@H](CC(=O)O)C(=O)N[C@@H](CCC(=O)O)C(N)=O
Consider B6, for which the KM, steady-state dephosphorylation of the pY peptide turned out to be 37 µM in assay [8], 3.5 µM in assay [6] and 56 µM in assay [7].

B7: Ac-AApYADDAA-NH2 (peptide)
peptide: Ac-AA[pY]ADDAA-NH2
SMILES: CC(=O)N[C@@H](C)C(=O)N[C@@H](C)C(=O)N[C@@H](Cc1ccc(OP(=O)(O)O)cc1)C(=O)N[C@@H](C)C(=O)N[C@@H](CC(=O)O)C(=O)N[C@@H](CC(=O)O)C(=O)N[C@@H](C)C(=O)N[C@@H](C)C(N)=O
B7: the values for the KM, steady-state dephosphorylation of the pY peptide in assay [8], in assay [6] and in assay [7] were 6.4 µM, 2.2 µM and 12 µM, respectively.

B8: Ac-YRKRFpYRYKF-NH2 (basic) (peptide)
peptide: Ac-YRKRF[pY]RYKF-NH2
SMILES: CC(=O)N[C@@H](Cc1ccc(O)cc1)C(=O)N[C@@H](CCCNC(=N)N)C(=O)N[C@@H](CCCCN)C(=O)N[C@@H](CCCNC(=N)N)C(=O)N[C@@H](Cc1ccccc1)C(=O)N[C@@H](Cc1ccc(OP(=O)(O)O)cc1)C(=O)N[C@@H](CCCNC(=N)N)C(=O)N[C@@H](Cc1ccc(O)cc1)C(=O)N[C@@H](CCCCN)C(=O)N[C@@H](Cc1ccccc1)C(N)=O
With B8, in assay [5], the kcat/KM, steady-state dephosphorylation of the pY peptide (KM not given) stood at 1500 M⁻¹ s⁻¹.

B9: Ac-EEDNAWpYAA-NH2 (peptide)
peptide: Ac-EEDNAW[pY]AA-NH2
SMILES: CC(=O)N[C@@H](CCC(=O)O)C(=O)N[C@@H](CCC(=O)O)C(=O)N[C@@H](CC(=O)O)C(=O)N[C@@H](CC(N)=O)C(=O)N[C@@H](C)C(=O)N[C@@H](Cc1c[nH]c2ccccc12)C(=O)N[C@@H](Cc1ccc(OP(=O)(O)O)cc1)C(=O)N[C@@H](C)C(=O)N[C@@H](C)C(N)=O
In the case of B9, the KM, steady-state dephosphorylation of the pY peptide in assay [8] came out at 1.9 µM; in assay [6], 1.3 µM; in assay [7] it was 9.5 µM.

B10: Ac-AApYAAADD-NH2 (peptide)
peptide: Ac-AA[pY]AAADD-NH2
SMILES: CC(=O)N[C@@H](C)C(=O)N[C@@H](C)C(=O)N[C@@H](Cc1ccc(OP(=O)(O)O)cc1)C(=O)N[C@@H](C)C(=O)N[C@@H](C)C(=O)N[C@@H](C)C(=O)N[C@@H](CC(=O)O)C(=O)N[C@@H](CC(=O)O)C(N)=O
With B10, the KM, steady-state dephosphorylation of the pY peptide was found to be 8.7 µM in assay [8], 3 µM in assay [6] and 10 µM in assay [7].

B11: Ac-AApYDDAAA-NH2 (peptide)
peptide: Ac-AA[pY]DDAAA-NH2
SMILES: CC(=O)N[C@@H](C)C(=O)N[C@@H](C)C(=O)N[C@@H](Cc1ccc(OP(=O)(O)O)cc1)C(=O)N[C@@H](CC(=O)O)C(=O)N[C@@H](CC(=O)O)C(=O)N[C@@H](C)C(=O)N[C@@H](C)C(=O)N[C@@H](C)C(N)=O
On to B11, for which the KM, steady-state dephosphorylation of the pY peptide in assay [6] is 6.5 µM; in assay [7], 34 µM.

Source of the values: publication PMC3954597 (Biochemistry, 2014).
